Results taken from the Immune Epitope Database (IEDB).

How the values were obtained:
[1] = target: HLA-A*24:02; assay: IEDB peptide-MHC binding, purified MHC/competitive/fluorescence; ≥ and ≤ were set here for values at or beyond the usual limits of such assays
[2] = target: HLA-A*02:01; assay: as above
[3] = target: HLA-A*11:01; assay: as above
[4] = target: HLA-B*15:01; assay: IEDB peptide-MHC binding, purified MHC/competitive/radioactivity; filed as Kd, often an IC50 or EC50 that approximates it; ≥ and ≤ were set here for values at or beyond the usual limits of such assays
[5] = target: HLA-A*30:02; assay: as above
[6] = target: HLA-B*57:01; assay: as above
[7] = target: HLA-B*58:01; assay: as above
[8] = target: HLA-A*32:01; assay: as above
[9] = target: HLA-A*11:01; assay: as above; conditions: source organism: Dengue virus 3 Martinique/1243/1999
[10] = target: HLA-B*57:01; assay: IEDB peptide-MHC binding, purified MHC/direct/fluorescence; filed as Kd, often an IC50 or EC50 that approximates it; ≥ and ≤ were set here for values at or beyond the usual limits of such assays
[11] = target: HLA-B*15:17; assay: as above
[12] = target: HLA-B*58:01; assay: as above
[13] = target: HLA-A*24:02; assay: IEDB peptide-MHC binding, purified MHC/competitive/radioactivity; filed as Kd, often an IC50 or EC50 that approximates it; ≥ and ≤ were set here for values at or beyond the usual limits of such assays
[14] = target: HLA-B*53:01; assay: as above
[15] = target: HLA-B*27:05; assay: IEDB peptide-MHC binding, purified MHC/direct/fluorescence; filed as Kd, often an IC50 or EC50 that approximates it; ≥ and ≤ were set here for values at or beyond the usual limits of such assays
[16] = target: HLA-B*48:01; assay: as above
[17] = target: HLA-A*26:01; assay: as above; conditions: source organism: Escherichia coli O157:H7
[18] = target: HLA-B*15:01; assay: as above; conditions: source organism: Escherichia coli O157:H7
[19] = target: HLA-B*44:02; assay: as above; conditions: source organism: Escherichia coli O157:H7
[20] = target: HLA-A*31:01; assay: as above; conditions: source organism: Escherichia coli O157:H7
[21] = target: HLA-A*01:01; assay: as above; conditions: source organism: Escherichia coli O157:H7
[22] = target: HLA-A*03:01; assay: as above; conditions: source organism: Escherichia coli O157:H7
[23] = target: HLA-B*07:02; assay: as above; conditions: source organism: Escherichia coli O157:H7
[24] = target: HLA-B*40:01; assay: as above; conditions: source organism: Escherichia coli O157:H7
[25] = target: HLA-A*69:01; assay: as above; conditions: source organism: Escherichia coli O157:H7
[26] = target: HLA-A*11:01; assay: as above; conditions: source organism: Escherichia coli O157:H7
[27] = target: HLA-B*08:01; assay: as above; conditions: source organism: Escherichia coli O157:H7
[28] = target: HLA-A*02:01; assay: as above; conditions: source organism: Escherichia coli O157:H7
[29] = target: HLA-A*23:01; assay: IEDB peptide-MHC binding, purified MHC/competitive/radioactivity; filed as Kd, often an IC50 or EC50 that approximates it; ≥ and ≤ were set here for values at or beyond the usual limits of such assays; conditions: source organism: Dengue virus 1 Brazil/97-11/1997
[30] = target: HLA-A*01:01; assay: as above; conditions: source organism: Dengue virus 3 Martinique/1243/1999
[31] = target: HLA-B*35:01; assay: as above; conditions: source organism: Dengue virus 2 Jamaica/1409/1983
[32] = target: HLA-B*07:02; assay: as above; conditions: source organism: Dengue virus 2 Jamaica/1409/1983
[33] = target: HLA-A*68:02; assay: as above; conditions: source organism: Dengue virus 2 Jamaica/1409/1983
[34] = source organism: Sudan ebolavirus
[35] = source organism: Zaire ebolavirus
[36] = source organism: Dengue virus 1 Brazil/97-11/1997
[37] = source organism: Vaccinia virus WR
[38] = source organism: Dengue virus 2 Jamaica/1409/1983
[39] = source organism: Dengue virus 4 Philippines/H241/1956
[40] = source organism: Dengue virus 3 Martinique/1243/1999
[41] = source organism: Entamoeba histolytica HM-1:IMSS
[42] = source organism: Lassa virus Josiah
[43] = source organism: Mammarenavirus lassaense
[44] = source organism: Escherichia coli O157:H7
[45] = source organism: Dengue virus 4 Dominica/814669/1981
[46] = source organism: Burkholderia mallei
[47] = source organism: Marburg virus - Musoke, Kenya, 1980
[48] = source organism: Vibrio parahaemolyticus

Sequence: AFSMPLGVV
- IC50 [1, 34]: 2820 nM
- IC50 [2, 34]: 8990 nM

Sequence: ANAGQFLSF
- IC50 [1, 35]: 578 nM

Sequence: ATISTSPQS
- IC50 [3, 35]: 17500 nM
- IC50 [2, 35]: ≥ 108000 nM

Sequence: AVLMLVAHY
- Kd [4, 36]: 51.2 nM
- Kd [5, 36]: 2.19 nM

Sequence: FDAVLYYHM
- IC50 [1, 35]: 12000 nM
- IC50 [2, 35]: ≥ 309000 nM

Sequence: FIIKSSYVF
- Kd [4, 37]: 3.23 nM

Sequence: GAAFSGVSW
- Kd [6, 38]: 22.8 nM
- Kd [7, 38]: 126 nM

Sequence: GEESASSGK
- IC50 [3, 35]: ≥ 314000 nM

Sequence: GSSKIRWIVE
- Kd [6, 39]: 868 nM
- Kd [8, 39]: 2260 nM

Sequence: GSSPIIEVKQ
- Kd [6, 39]: 17000 nM

Sequence: GTNTTTEDH
- IC50 [3, 35]: ≥ 76900 nM

Sequence: GTSADLTVEK
- Kd [6, 40]: 3510 nM
- Kd [9]: 219 nM

Sequence: IQAFEAGVD
- IC50 [1, 35]: 32900 nM
- IC50 [2, 35]: ≥ 210000 nM

Sequence: ISTLPTEQF
- Kd [10, 41]: 238 nM
- Kd [11, 41]: 6.5 nM
- Kd [12, 41]: 2.2 nM

Sequence: ITAAAWYLW
- Kd ([11]; source organism: dengue virus type 2): 6.7 nM
- Kd [6, 38]: 0.477 nM
- Kd [13, 38]: 21.5 nM
- Kd [14, 38]: 174 nM

Sequence: IWMAPSLTE
- IC50 [1, 35]: 256 nM

Sequence: KAIKILTGF
- Kd [6, 39]: 66.7 nM
- Kd [7, 39]: 22.4 nM

Sequence: KATREAQKRA
- Kd [6, 38]: 847 nM
- Kd [7, 38]: 10700 nM

Sequence: KFRKSSFFV
- IC50 [1, 34]: 449 nM
- IC50 [2, 34]: 7760 nM

Sequence: KLHSGKDVF
- Kd [4, 36]: 4.82 nM

Sequence: KLRQIVAYF
- Kd [4, 37]: 7.59 nM

Sequence: KQAKAPESK
- Kd [15, 42]: 704 nM
- Kd [16, 42]: ≥ 20000 nM

Sequence: KRASPILRF
- Kd [15, 43]: 87 nM
- Kd [16, 43]: ≥ 20000 nM

Sequence: KTTIKFHPW
- Kd [10, 44]: 215 nM
- Kd [17]: ≥ 20000 nM
- Kd [18]: ≥ 20000 nM
- Kd [19]: ≥ 20000 nM
- Kd [20]: 333 nM
- Kd [21]: ≥ 20000 nM
- Kd [22]: ≥ 20000 nM
- Kd [23]: ≥ 20000 nM
- Kd [15, 44]: ≥ 20000 nM
- Kd [24]: ≥ 20000 nM
- Kd [11, 44]: 27.8 nM
- Kd [12, 44]: 47.5 nM
- Kd [25]: ≥ 20000 nM
- Kd [26]: ≥ 20000 nM
- Kd [27]: ≥ 20000 nM
- Kd [28]: ≥ 20000 nM

Sequence: LGFMNEDHW
- Kd [6, 36]: 26.2 nM

Sequence: LGKAVHQVF
- Kd [4, 39]: 477 nM

Sequence: LMLLPTALAF
- Kd [4, 36]: 0.82 nM
- Kd [13, 36]: 4450 nM
- Kd [14, 36]: 15600 nM
- Kd [29]: 72.9 nM

Sequence: LSRNSTHEMY
- Kd [4, 40]: 48.2 nM
- Kd [30]: 291 nM
- Kd [5, 40]: 32.2 nM

Sequence: LTSTWVMYGT
- Kd [6, 45]: 2540 nM
- Kd [7, 45]: 663 nM

Sequence: MAILGDTAW
- Kd [6, 38]: 22.6 nM
- Kd [14, 38]: 9.79 nM
- Kd [31]: 33.1 nM
- Kd [7, 38]: 3.34 nM

Sequence: MIKNLTQLF
- Kd ([4]; source organism: Vaccinia virus Copenhagen): 5.71 nM

Sequence: MLAVWNRVW
- Kd [6, 38]: 20.6 nM
- Kd [7, 38]: 113 nM

Sequence: MTTTANWLW
- Kd [6, 39]: 1.62 nM
- Kd [14, 39]: 2.5 nM
- Kd [7, 39]: 1.05 nM

Sequence: NIREIEEHM
- Kd [4, 37]: 234 nM

Sequence: PATLFVWYFW
- Kd [6, 36]: 169 nM
- Kd [7, 36]: 9290 nM
- Kd [8, 36]: 15500 nM

Sequence: PVVLTGGTG
- IC50 ([1]; source organism: Variola virus): 69800 nM
- IC50 ([2]; source organism: Variola virus): ≥ 167000 nM

Sequence: QSSSMRKTDW
- Kd [6, 40]: 151 nM
- Kd [7, 40]: 75.8 nM

Sequence: RAMDTYHRW
- Kd [10, 46]: 48.8 nM
- Kd [11, 46]: 2.1 nM
- Kd [12, 46]: 10.5 nM

Sequence: RSLIGNEEF
- Kd [7, 40]: 15.4 nM
- Kd [8, 40]: 4650 nM

Sequence: RTSWALCEAL
- Kd [6, 40]: 1710 nM

Sequence: RVIGYILFF
- Kd [11, 47]: 129 nM
- Kd [12, 47]: 2040 nM

Sequence: RVIQLSRKTF
- Kd [4, 36]: 45.2 nM
- Kd [29]: 3290 nM

Sequence: RVMVMVGATM
- Kd [4, 38]: 2.14 nM
- Kd [32]: 61.5 nM

Sequence: SASSMVNGVV
- Kd [6, 38]: 227 nM
- Kd [7, 38]: 2040 nM
- Kd [33]: 10.2 nM

Sequence: SINNIDPHF
- Kd [4, 37]: 12 nM

Sequence: STTLFKIDN
- IC50 [3, 34]: ≥ 146000 nM

Sequence: TLAAMPEEE
- IC50 [1, 35]: 10000 nM

Sequence: TQVGTLALSL
- Kd [4, 39]: 57.2 nM

Sequence: VGVNTQETI
- IC50 [1, 34]: 7560 nM

Sequence: VSSVNTTSKM
- Kd [6, 39]: 12100 nM
- Kd [7, 39]: 1450 nM

Sequence: YGVKNLFDW
- Kd [10, 47]: 38.3 nM
- Kd [11, 47]: 155 nM
- Kd [12, 47]: ≥ 5000 nM

Sequence: YSLGQGPVW
- Kd [11, 48]: ≤ 1 nM
- Kd [12, 48]: 2.6 nM
